Values of other authors in patent US11229683B2, “Hematopoietic growth factor proteins and analogs thereof and angiotensin converting enzyme inhibitors for treatment of radiation exposure” (priority 2015, dated 2022).
Where two headings read alike, the source gives them in different places.

What was measured:
[1] = system: chemotherapy (cyclophosphamide)-treated rats; settings: single injection; cited from earlier work
irradiated monkeys = settings: cited from earlier work; for survival versus vehicle: daily sc treatment started 48 h post-TBI

B1: G-CSF: human G-CSF (filgrastim (Neupogen, Amgen, Inc.) (protein, listed as Homo sapiens)
chain: TPLGPASSLPQSFLLKCLEQVRKIQGDGAALQEKLCATYKLCHPEELVLLGHSLGIPWAPLSSCPSQALQLAGCLSQLHSGLFLYQGLLQALEGISPELGPTLDTLQLDVADFATTIWQQMEELGMAPALQPTQGAMPAFASAFQRRAGGVLVASHLQSFLEVSYRVLRHLAQP
For B1, the recovery from neutropenia [1] is given as “ineffective”, the “60-day survival of rhesus monkeys” value (irradiated monkeys; daily sc 0.01 mg/kg/day for 16-23 days, started 24 h post-TBI) is given as “increased 60-day survival” and the “survival of irradiated monkeys” value (irradiated monkeys; daily sc beginning 24 h post-TBI for about 16 days, placebo 50%) is given as 80%. For the same molecule, the survival versus vehicle (irradiated monkeys) was “did not increase survival” and the survival versus vehicle (irradiated monkeys; listed as filgrastim) was “but not when administered at 48 h post-TBI”.
